# Measurements from US20250051434A1.
# Target: human IL-12 receptor (IL-12R) (human) (UniProt P42701)
# Assay: cell-based or functional assay
substance,measurement,value
mIL-12-Fc-wt (Fc fusion),Mean Fold Reduction (potency vs IL-12 WT by EC50; HEK-Blue IL-12 STAT4/SEAP reporter),1 fold
